From PMC7058304 (PLoS ONE, 2020)

B1: mAb23 (antibody, V domains shown)
VH: EVQLLESGGVLVQPGGSLRLSCAASGFTFSNFGMTWVRQAPGKGLEWVSGISGGGRDTYFADSVKGRFTISRDNSKNTLYLQMNSLKGEDTAVYYCVKWGNIYFDYWGQGTLVTVSS
VL: DIQMTQSPSSLSASVGDSITITCRASLSINTFLNWYQQKPGKAPNLLIYAASSLHGGVPSRFSGSGSGTDFTLTIRTLQPEDFATYYCQQSSNTPFTFGPGTVVDFR
notes: IgG4; also called analog of cemiplimab; cemip; source: HEK293 suspension cells, cotransfected, purified (Protein A)
B2: mAb17 (antibody, V domains shown)
VH: EVQLVESGGGLVQPGGSLRLSCAASGFTFSSYMMSWVRQAPGKGLEWVATISGGGANTYYPDSVKGRFTISRDNAKNSLYLQMNSLRAEDTAVYYCARQLYYFDYWGQGTTVTVSS
VL: DIQMTQSPSSLSASVGDRVTITCLASQTIGTWLTWYQQKPGKAPKLLIYTATSLADGVPSRFSGSGSGTDFTLTISSLQPEDFATYYCQQVYSIPWTFGGGTKVEIK
notes: IgG4; also called analog of camrelizumab; camre; source: HEK293 suspension cells, cotransfected, purified (Protein A)
B3: mAb16 (antibody, V domains shown)
VH: EVQLLESGGGLVQPGGSLRLSCAASGFTFSSYDMSWVRQAPGKGLEWVSTISGGGSYTYYQDSVKGRFTISRDNSKNTLYLQMNSLRAEDTAVYYCASPYYAMDYWGQGTTVTVSS
VL: DIQLTQSPSFLSAYVGDRVTITCKASQDVGTAVAWYQQKPGKAPKLLIYWASTLHTGVPSRFSGSGSGTEFTLTISSLQPEDFATYYCQHYSSYPWTFGQGTKLEIK
notes: IgG4; also called analog of dostarlimab; dostar; source: HEK293 suspension cells, cotransfected, purified (Protein A)

target: T1, Recombinant purified human PD-1 protein, residues Leu25-Thr168, with a C-terminal 6-His tag (Homo sapiens, UniProt Q15116); assay: SPR; Biacore 8K, CMD-P chip (flat); mAb captured on amine-coupled goat anti-human IgG Fc, PD-1-His monomer as analyte (100 nM top, 3-fold dilutions), 1200 s dissociation; 25 C, HBS-EP+ pH 7.4; 1:1 Langmuir fit, apparent constants; details: both partners purified
T1 construct: programmed cell death protein 1 (PD-1), human, residues Leu25-Thr168; also called programmed cell death protein 1; PD-1-His monomer; source: bought: R&D Systems (catalog# 8986-PD, lot# DDJM0417041)
T1 sequence (Q15116 25-168): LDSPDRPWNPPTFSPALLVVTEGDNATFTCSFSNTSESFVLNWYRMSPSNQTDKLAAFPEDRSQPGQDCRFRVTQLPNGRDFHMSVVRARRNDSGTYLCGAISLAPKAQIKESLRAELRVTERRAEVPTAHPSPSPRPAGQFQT

| Kd [nM] | koff [s⁻¹] | kon [M⁻¹ s⁻¹] | Binder |
| --- | --- | --- | --- |
| 0.897 | 0.000164 | 183000 | B1 |
| 2.58 | 0.000497 | 192000 | B2 |
| 0.965 | 0.000269 | 279000 | B3 |

target: T1, Recombinant purified human PD-1 …; assay: SPR; Biacore 8K, C1 chip (flat); mAb captured on amine-coupled goat anti-human IgG Fc, PD-1-His monomer as analyte (100 nM top, 3-fold dilutions), 1200 s dissociation; 25 C, HBS-EP+ pH 7.4; 1:1 Langmuir fit, apparent constants; 8 mAbs measured in two independent experiments; details: both partners purified

| Kd [nM] | koff [s⁻¹] | kon [M⁻¹ s⁻¹] | Binder |
| --- | --- | --- | --- |
| 0.752 | 0.000188 | 250000 | B1 |
| 2.15 | 0.000526 | 245000 | B2 |
| 0.784 | 0.000297 | 379000 | B3 |

target: T1, Recombinant purified human PD-1 …; assay: SPR; Biacore 8K, CM5 chip (3D-hydrogel); mAb captured on amine-coupled goat anti-human IgG Fc, PD-1-His monomer as analyte (100 nM top, 3-fold dilutions), 1200 s dissociation; 25 C, HBS-EP+ pH 7.4; 1:1 Langmuir fit, apparent constants; details: both partners purified

| Kd [nM] | koff [s⁻¹] | kon [M⁻¹ s⁻¹] | Binder |
| --- | --- | --- | --- |
| 1.75 | 0.000157 | 90100 | B1 |
| 4.99 | 0.000456 | 91400 | B2 |
| 1.77 | 0.000262 | 148000 | B3 |

target: T1, Recombinant purified human PD-1 …; assay: SPR; Biacore 8K, CMD-200M chip (3D-hydrogel); mAb captured on amine-coupled goat anti-human IgG Fc, PD-1-His monomer as analyte (100 nM top, 3-fold dilutions), 1200 s dissociation; 25 C, HBS-EP+ pH 7.4; 1:1 Langmuir fit, apparent constants; details: both partners purified

| Kd [nM] | koff [s⁻¹] | kon [M⁻¹ s⁻¹] | Binder |
| --- | --- | --- | --- |
| 2.01 | 0.000212 | 105000 | B1 |
| 4.09 | 0.000503 | 123000 | B2 |
| 1.63 | 0.000287 | 176000 | B3 |
